For 72 sequences, protein stability index results are on record in the supplement of paper PMC10567573.

± gives the standard deviation.

The nature of this data set: protein stability index of a GFP-peptide fusion (GPS, HEK-293T) (PSI 1-6); higher = more stable.
Setting [1] is: treatment: DMSO, c terminus: a fixed tail appended.
The mark [2] stands for this setting: treatment: MLN4924 1 uM, 8 h, c terminus: a fixed tail appended.
The mark [3] stands for this setting: treatment: DMSO, c terminus: native.
Setting [4] is: treatment: MLN4924 1 uM, 8 h, c terminus: native.
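Note: 24-mer peptide tiles fused after GFP, lentivirally expressed, FACS-sorted into six equal bins by GFP/DsRed ratio, decoded by Illumina sequencing, PSI is the read-weighted mean bin number.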

PSWNGSLKQLLTETDVWFSKQRKD [GMCL1]: the protein stability index is 3.27 ± 0.049 under setting [1] and 3.29 ± 0.43 under setting [2].
As for PTICMAYLMKTKQFRLKEAFDYIK [DUSP5], the protein stability index is, setting by setting: under setting [1], 2.27 ± 0.47; under setting [2], 2.54 ± 0.31.
The matching figures for PTTGYRRLLRFSSQIHNNGQSDFR [LOXL2]: 3.03 ± 0.37 and 3.22 ± 0.31.
On the same counts, the results for PVAAATAAEGEGSPPAVAAVAGPP [ANKRD17] are 5.54 ± 0.19 and 5.54 ± 0.094.
The matching figures for PVEEPEPKPDRLLVLKVLWNDFLM [SLC19A2]: 2.21 ± 0.2 and 2.17 ± 0.19.
For PVELYTAFQHTPTSITLTASRVSK [KMT2E], the protein stability index was determined as 3.63 ± 0.095 under setting [1] and 3.71 ± 0.13 under setting [2].
As to PVSKPGALRRSLSRSMSQEAQRG [TCAP], the protein stability index by setting is: under setting [3], 3.19 ± 0.23; under setting [4], 3.2 ± 0.37.
For the sequence PWKEETFLVLQSLLERQVEMTPEK [FANCE], the protein stability index under setting [1] worked out at 3 ± 0.22 and the protein stability index under setting [2] is 3.08 ± 0.27.
On to QAGGEGAGGELGISLNMCLLGALV [PBXIP1], for which the protein stability index reads like this: under setting [1], 2.92 ± 0.65; under setting [2], 2.23 ± 0.33.
On the same counts, the results for QALRQMNEGAIDCVNYEGQSAYDV [DLC1] are 4.41 ± 0.22 and 4.39 ± 0.1.
For QDGVSCLNIVERYDPKENKWTRVA [KLHL20], the protein stability index turned out to be 3.98 ± 0.28 under setting [1] and 4.08 ± 0.21 under setting [2].
For QDSPGPHEALSRLWELCHLWLRPE [ZNF396], the protein stability index reads like this: under setting [1], 2.33 ± 0.14; under setting [2], 2.15 ± 0.079.
In the case of QFSLMLCAFVGALGGAAFLGTAIF [SPNS1], the protein stability index is, setting by setting: under setting [1], 2.81 ± 0.47; under setting [2], 2.47 ± 0.41.
On the same counts, the results for QHLKYKEHPEALSCLLLQLRREKP [INTS3] are 2.68 ± 0.16 and 3 ± 0.32.
Take QILLEWCRSKTLGYQHVDLQNFSS [SMTNL2]: the protein stability index was found to be 2.72 ± 0.56 under setting [1] and 2.49 ± 0.43 under setting [2].
Regarding QIQRISLNTLTLNVKSEKVYTRHG [FLOT1], the protein stability index worked out at 2.6 ± 0.14 under setting [1] and 3.01 ± 0.25 under setting [2].
On the same counts, the results for QKDLIMKVENLTLKNHFQSVLEQL [TAF7L] are 2.66 ± 0.2 and 2.4 ± 0.29.
QKITAIITFPSLESCEEKNQLILT [WDR41]: the protein stability index stood at 2.29 ± 0.16 under setting [1] and 2.22 ± 0.26 under setting [2].
On the same counts, the results for QKRQQLSEDTLTIHGLPTEGYQAL [C22orf31] are 3.91 ± 0.12 and 3.92 ± 0.096.
The sequence QKVATLEKRNRQLRERVKKVKRSL [CCDC3] came in with a protein stability index under setting [1] of 4.08 ± 0.2 and a protein stability index under setting [2] of 4.89 ± 0.11.
As for QLDIASQSLDQEILLKVKTEIEEE [BCL2L13], the protein stability index reads like this: under setting [1], 5.21 ± 0.37; under setting [2], 5.09 ± 0.21.
On the same counts, the results for QLLSERFGRGSRTVDLELELQIEL [ARFIP2] are 2.58 ± 0.46 and 2.99 ± 0.94.
The matching figures for QLQVESNSSQLLLRRHAGLLDGLA [SCARA5]: 2.68 ± 0.26 and 2.9 ± 0.17.
With QLSPSPTPASQSPKKPPAKDPLAD [SNAP91], the protein stability index by setting is: under setting [1], 5.49 ± 0.26; under setting [2], 5.53 ± 0.29.
On the same counts, the results for QLSRDSTLGGKAFHITNDEPIPFW [NSDHL] are 2.89 ± 0.18 and 3.07 ± 0.55.
On the same counts, the results for QLTKASLKPRGCSKPPWRPPGGKL [SPACA9] are 2.83 ± 0.29 and 2.92 ± 0.079.
On the same counts, the results for QLTKELPLSPAFFGEDGIFRHDRL [PBXIP1] are 3.07 ± 0.19 and 3.01 ± 0.33.
In the case of QNPPVIKSSGRFLWIKFFAAGELE [NETO1], the protein stability index under setting [1] was determined as 2.57 ± 0.53 and the protein stability index under setting [2] turned out to be 2.11 ± 0.19.
Turning to QPGLLHLQSCGDLHTFTPAGRPRA [FAM189A2], the protein stability index was found to be 5.66 ± 0.44 under setting [1] and 5.53 ± 0.18 under setting [2].
The matching figures for QPILQIDNARLAADDFRTKYEHEL [KRT16]: 4.6 ± 0.2 and 4.31 ± 0.45.
The matching figures for QPKCDNTARAHPAKARDLYKGRQL [SMOC2]: 4.26 ± 0.17 and 4.35 ± 0.19.
For QPLADEGPPGRSIGGAAPSLGALD [SERTAD1], the protein stability index by setting is: under setting [1], 5.19 ± 0.24; under setting [2], 5.32 ± 0.15.
On the same counts, the results for QPQDRNQALGTHRPVNKLAELQCE [RASAL3] are 4.77 ± 0.37 and 4.88 ± 0.25.
For the sequence QQAALPRLSRRMASQHSYPLNRFS [CBY2], the protein stability index reads like this: under setting [1], 3.38 ± 0.31; under setting [2], 3.45 ± 0.31.
Take QQKKDLEILHQQNIHQLQNRLSEL [SASS6]: the protein stability index stood at 3.96 ± 0.21 under setting [1] and 4.13 ± 0.2 under setting [2].
On the same counts, the results for QQQHVSCQVFPERLAQGNPQQGFF [ATP23] are 3.5 ± 0.34 and 3.28 ± 0.39.
On the same counts, the results for QQTPVGTPKDKRVSNTPLRTVDGS [PALM] are 5.07 ± 0.13 and 5.03 ± 0.15.
The matching figures for QQVCQWLLWATNEFSLVNVNLQRF [ETS2]: 3.01 ± 0.23 and 2.94 ± 0.42.
With QRELEIPEQQVDMHDMLLEELAPV [ZNF449], the protein stability index under setting [1] stood at 5.22 ± 0.26 and the protein stability index under setting [2] was determined as 5.12 ± 0.21.
On the same counts, the results for QRIHAAERLCMGVDCTEIFGGNPR [ZNF263] are 3.36 ± 0.27 and 3.38 ± 0.31.
On to QRINTYVFVGNQLIPQPLDSEEDE [PCMTD1], for which the protein stability index by setting is: under setting [1], 4.32 ± 0.25; under setting [2], 4.37 ± 0.15.
On the same counts, the results for QRITKQLEKWMQKNVEENLYSSSL [GLT8D2] are 2.89 ± 0.28 and 3.03 ± 0.21.
The matching figures for QRMRVPEKLKVAPPNADLEQGFQE [MFF]: 4.82 ± 0.19 and 4.74 ± 0.092.
Consider QSPGQPVQGGSEAWGPGTLAAAPE [TEX19], for which the protein stability index is, setting by setting: under setting [1], 5.08 ± 0.37; under setting [2], 5.11 ± 0.24.
On to QSSNLFRHQRRHNAEKLLNVVKV [ZNF24], for which the protein stability index by setting is: under setting [3], 1.84 ± 0.38; under setting [4], 2.11 ± 0.26.
For QTLDKKLMSDLRRKRTAHERAKEL [INTS4], the protein stability index by setting is: under setting [1], 4.22 ± 0.27; under setting [2], 4.26 ± 0.25.
On the same counts, the results for QVAMRCRCSSMHFLVAEWNEPSIN [SAT1] are 2.23 ± 0.53 and 2.27 ± 0.2.
On to QVLIKHSADVNARDKNWQTPLHVA [ANKRD44], for which the protein stability index was found to be 3.15 ± 0.34 under setting [1] and 3.01 ± 0.32 under setting [2].
The matching figures for QWGAEPEGSCYQTFRQYCGAACTC [RNF208]: 3 ± 0.47 and 3.06 ± 0.34.
As for RAFVSIQEEMAEDPLTYKSRLMVV [RHOBTB2], the protein stability index is, setting by setting: under setting [1], 2.74 ± 0.39; under setting [2], 2.18 ± 0.4.
The matching figures for RALKFRERDALEAVFRFWAGGEKG [DNAAF3]: 2.32 ± 0.07 and 2.59 ± 0.43.
As for RARLDSMVLLIMKLDQLDQDIENA [DLC1], the protein stability index under setting [1] is 2.47 ± 0.22 and the protein stability index under setting [2] was determined as 2.4 ± 0.39.
In the case of RATNHLDQVPSMQDGSESFFFRHG [SPAG8], the protein stability index runs as follows: under setting [1], 3.51 ± 0.1; under setting [2], 3.62 ± 0.28.
The matching figures for RCACAASSDESPGSKCSPEDLATA [TTC32]: 3.83 ± 0.49 and 4.08 ± 0.23.
The matching figures for RCPSSSLHMSQRERTWPPPAMSPY [C22orf15]: 2.89 ± 0.3 and 2.9 ± 0.27.
On the same counts, the results for RCSSMHFLVAEWNEPSINFYKRRG [SAT1] are 2.86 ± 0.33 and 2.42 ± 0.28.
In the case of RDVVLCSLLNFLPEGVNKLKISPV [TENT5C], the protein stability index under setting [1] was 2.2 ± 0.44 and the protein stability index under setting [2] was 2.02 ± 0.43.
For the sequence REEEKTFWKKYRTFWKEDKAFWKE [CCDC70], the protein stability index under setting [1] turned out to be 2.57 ± 0.2 and the protein stability index under setting [2] worked out at 2.75 ± 0.22.
As to RELGVWRSLLRLRATRAGAAEEPG [C2CD2L], the protein stability index runs as follows: under setting [1], 3.15 ± 0.24; under setting [2], 3.27 ± 0.33.
On the same counts, the results for RELKAKLSGVEEELQRTKQEVLSL [SASS6] are 4.47 ± 0.41 and 4.46 ± 0.22.
On the same counts, the results for RFEEPKGPPARQEDSKELRALRKM [CBY2] are 4.91 ± 0.43 and 4.99 ± 0.2.
As to RFFLGDLCSRQDLYPALKGVNTVF [NSDHL], the protein stability index was determined as 2.19 ± 0.26 under setting [1] and 2.14 ± 0.54 under setting [2].
The matching figures for RFGVRPKVTGYLISYSSMLGAVAG [MFSD9]: 2.58 ± 0.54 and 2.29 ± 0.31.
Consider RFQAMEETHLRHMKALLGSYAHSV [FCHO1], for which the protein stability index was found to be 2.38 ± 0.37 under setting [1] and 2.38 ± 0.31 under setting [2].
Consider RGDSVKVENPSTASHSLSPSEHVQ [ZNF649], for which the protein stability index is, setting by setting: under setting [1], 5.08 ± 0.37; under setting [2], 5.19 ± 0.6.
The matching figures for RGRASGFAGSMFGSVALGPVCPTV [KRT71]: 2.7 ± 0.14 and 2.88 ± 0.28.
On the same counts, the results for RIHSGEKPYECNECGKAFSQSSYL [ZNF232] are 2.85 ± 0.068 and 3.1 ± 0.35.
On the same counts, the results for RITQYLDAGGIPRTAQSEETRVWH [CAMK2A] are 3.03 ± 0.29 and 3.24 ± 0.39.
Regarding RIVKIWDMTPVVGCSLATGFSPH [WDFY1], the protein stability index runs as follows: under setting [3], 2.05 ± 0.28; under setting [4], 2.34 ± 0.32.
For the sequence RKDPYGKPVDMWACGVILYILLVG [CAMK2D], the protein stability index is 2.53 ± 0.12 under setting [1] and 3.04 ± 1.1 under setting [2].
On to RKPAAGAQSAGTQQVAAVSSVSPA [BRD3], for which the protein stability index runs as follows: under setting [1], 4.82 ± 0.12; under setting [2], 4.86 ± 0.16.
In the case of RLLQEEDRRKKIARMGFNASSMLR [DCAF4], the protein stability index reads like this: under setting [1], 2.52 ± 0.22; under setting [2], 2.57 ± 0.25.
